The target of assay [1] is DRB5*01:01 HLA Class II antigen expressed in a K cell line host (K562), lacking a CLIP peptide in the peptide binding groove (human). The assay is described as follows: Luminex bead assay, Streptavidin-PE detection of biotinylated CLIP; no-peptide control beads.
Assay [2] has as its target DRB5*01:01 HLA Class II antigen (K cell line host) loaded in vitro with biotinylated CLIP peptide (human). Description: Luminex bead assay, Streptavidin-PE detection of biotinylated CLIP loaded on the antigen.
In assay [3] the target is DRB1*03:01 HLA Class II antigen loaded in vitro with biotinylated CLIP peptide (human). The description is as above.
Sequence of DRB1*03:01 HLA Class II antigen loaded in vitro with biotinylated CLIP peptide (human) (P04233 97-121 limits assumed, chain 3 of 3, other chains not shown): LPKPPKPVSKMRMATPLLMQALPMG

For the substance “Anti-biotinylated CLIP (Streptavidin-PE, to detect the presence of the biotinylated CLIP) (from UniProt P22629 37-163)”, the MFI was found to be 840 MFI in assay [1], 4600 MFI in assay [2] and 2810 MFI in assay [3].
